The source of these data is patent US20120301469A1.

The Kd is the constant that tells how readily two partners part at equilibrium. By koff is commonly meant the first-order rate constant of dissociation. Read a high koff as a short-lived complex. The kon is the second-order rate constant of association. Lower therefore signals slow association.

Assay [1] addresses protein F of hRSV strain B-1 (on RSV B-1-infected Hep2 cells and on virus) (human respiratory syncytial virus, strain B-1) (UniProt P13843). As to the kind of experiment: cell-based or functional assay.
The target in assay [2] is hRSV FTM-NN (membrane anchorless form of the Long fusion protein, 70 kDa) (human respiratory syncytial virus, strain Long) (UniProt P12568). As to the kind of experiment: SPR (Biacore), FTM-NN amine-coupled on CM5 chip, 1:1 Langmuir fit.
Assay [3] addresses protein F of hRSV strain Long, on virus (inactivated hRSV Long, Hytest #8RSV79; RSV Long LM-2, ATCC VR-26) (human respiratory syncytial virus, strain Long) (UniProt P12568). The assay can be described thus: cell-based or functional assay.

The substance “101F Fab (WO 06/050280, humanized monoclonal antibody, in-house produced)” returned a Neutralization B-1 IC50 in assay [1] of 180 nM.
With “Synagis® Mab (Palivizumab, humanized monoclonal antibody)”, in assay [2], the Kd was 0.64 nM, the koff worked out at 0.00018 s⁻¹ and the kon is 280000 M⁻¹ s⁻¹. The Neutralization Long IC50 in assay [3] is 5.96 nM. The same substance came in with a Neutralization B-1 IC50 in assay [1] of 3.9 nM.
